In patent publication US7034002:

Biological target: Angiotensin converting enzyme (rabbit lung acetone powder, Sigma; supernatant of the extract) (rabbit) (UniProt P12822)
Test: cell-based or functional assay

UniProt P12822, sequence (P12822 34-1310 limits assumed): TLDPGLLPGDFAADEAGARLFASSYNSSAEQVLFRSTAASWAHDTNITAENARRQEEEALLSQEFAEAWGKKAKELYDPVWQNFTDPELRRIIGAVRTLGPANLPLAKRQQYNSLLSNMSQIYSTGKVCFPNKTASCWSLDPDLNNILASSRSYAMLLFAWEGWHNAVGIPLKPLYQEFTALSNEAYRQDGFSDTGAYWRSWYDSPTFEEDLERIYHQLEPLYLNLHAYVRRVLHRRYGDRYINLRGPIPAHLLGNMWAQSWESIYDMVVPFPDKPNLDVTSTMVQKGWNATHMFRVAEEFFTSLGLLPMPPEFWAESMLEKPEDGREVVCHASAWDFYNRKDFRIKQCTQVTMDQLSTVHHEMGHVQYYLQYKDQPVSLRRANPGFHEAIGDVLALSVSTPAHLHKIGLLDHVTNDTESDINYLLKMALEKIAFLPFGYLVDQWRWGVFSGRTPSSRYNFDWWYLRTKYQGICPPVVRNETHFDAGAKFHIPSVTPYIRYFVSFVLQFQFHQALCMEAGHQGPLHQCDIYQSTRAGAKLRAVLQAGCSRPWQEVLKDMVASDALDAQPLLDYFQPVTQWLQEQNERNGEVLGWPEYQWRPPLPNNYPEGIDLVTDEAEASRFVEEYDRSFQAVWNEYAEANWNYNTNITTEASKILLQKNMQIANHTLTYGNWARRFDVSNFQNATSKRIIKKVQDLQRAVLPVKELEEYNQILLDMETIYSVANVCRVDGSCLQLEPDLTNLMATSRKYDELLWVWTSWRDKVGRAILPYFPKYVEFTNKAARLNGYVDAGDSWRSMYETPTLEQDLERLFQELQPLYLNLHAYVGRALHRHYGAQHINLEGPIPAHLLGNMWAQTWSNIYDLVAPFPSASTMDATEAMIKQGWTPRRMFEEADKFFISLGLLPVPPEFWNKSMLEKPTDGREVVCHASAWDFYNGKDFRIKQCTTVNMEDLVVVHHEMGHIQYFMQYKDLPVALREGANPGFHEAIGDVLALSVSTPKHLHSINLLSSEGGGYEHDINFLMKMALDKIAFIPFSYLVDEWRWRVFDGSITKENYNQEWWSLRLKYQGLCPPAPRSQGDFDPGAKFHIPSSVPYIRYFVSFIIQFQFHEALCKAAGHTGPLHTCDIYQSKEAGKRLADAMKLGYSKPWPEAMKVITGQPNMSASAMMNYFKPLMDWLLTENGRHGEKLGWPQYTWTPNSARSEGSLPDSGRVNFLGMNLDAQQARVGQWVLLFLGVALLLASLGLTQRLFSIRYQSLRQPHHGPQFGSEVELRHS

Substance | IC50 (angiotensin converting enzyme inhibitory activity, Bz-Gly-His-Leu substrate, OD228 of hippuric acid)
Fraction E-2: membrane-concentrated fraction of E-1 | 300 µg/mL
Fraction E-3: membrane-penetrating fraction of E-1 | 30 µg/mL
Fraction E-5: ethanol-soluble fraction of E-1 | 40 µg/mL
Fraction E-8: membrane-penetrating fraction of E-6 | 35 µg/mL
Fraction E-9: ethanol precipitate of E-6 | 200 µg/mL
Fraction E-1: concentrated thermolysin hydrolysate of the hot-water-extracted residue of dried bonito | 80 µg/mL
Fraction E-10: ethanol-soluble fraction of E-6 | 50 µg/mL

The remaining lines, values ahead:

IC50 (angiotensin converting enzyme inhibitory activity, Bz-Gly-His-Leu substrate, OD228 of hippuric acid) | Substance
200 µg/mL | Fraction E-4: ethanol precipitate of E-1
310 µg/mL | Fraction E-7: membrane-concentrated fraction of E-6
110 µg/mL | Fraction E-6: concentrated thermolysin hydrolysate of homogenized dried bonito
